# According to article PMC314469, “Protein Interaction Networks by Proteome Peptide Scanning” (PLoS Biology, 2004):
# T1: Myo5 SH3 (MYO5_YEAST), Q04439
# T1 chain: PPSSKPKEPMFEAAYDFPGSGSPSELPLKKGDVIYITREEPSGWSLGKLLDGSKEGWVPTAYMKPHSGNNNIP
# Target: T1, Myo5 SH3 (MYO5_YEAST), Q04439
# Assay: SPOT array
row,Binder,"normalised SPOT signal, Boehringer light units (BLU); mean over the file's lines of this peptide"
1,GESHYKPPSTPKIN [YFL034W 1020-1033],722
2,HPEYLSLPFEPYSF [YLR054C 108-121],213
3,FLYPYDDPNAPIDE [YCR079W 210-223],55.4
4,IAESLGVPWEPVDL [YGR088W 547-560],143
5,GARFLPAPHRPEKY [YGR154C 63-76],153
6,HLFHLTTPQDPRLL [YKL191W 249-262],246
7,GFDGYMQPIIPGKT [YDR390C 147-160],158
8,GPSQFAPPPPPPGV [YCR077C 189-202],20400
9,GLDALNIPHKPKQL [YHR033W 57-70],167
10,GPEFWISPDTPLKF [YJL093C 632-645],87.4
11,HFLAYTNPRAPGKL [YIL054W 29-42],112
12,HFYEYVYPSLPFIE [YAL051W 349-362],152
13,IARPLSVPGSPKVR [YFR015C 646-659],383
14,HAEAFEDPSIPRIS [YGL195W 985-998],325
15,IAKPYVLPFFPLYA [YEL031W 24-37],247
16,GLIAHQGPQFPVMG [YKL204W 458-471],238
17,FPKKMGPPQWPFST [YHR199C 84-97],279
18,HEHNYAIPYTPATF [YBR238C 43-56],129
19,GEIMFPAPPLPIAN [YDL172C 53-66],2770
20,GEFFHSSPNIPHYA [YLR244C 297-310],271

row,Binder,"normalised SPOT signal, Boehringer light units (BLU); mean over the file's lines of this peptide"
1,HAWDMRSPHRPFYS [YDR128W 140-153],822
2,IARSFTIPFLPKIP [YLR164W 20-33],204
3,HEKLYHNPSLPAQS [YKL217W 53-66],78.1
4,HLVVWNPPILPQHE [YDR291W 495-508],118
5,HLARYIFPPNPVFH [YBR007C 426-439],279
6,FLTVYILPKNPFRV [YGR293C 121-134],1470
7,FWKIHLSPPLPSFK [YGR018C 23-36],966
8,GFVFFIAPHLPVDL [YER003C 399-412],508
9,GLLLLFVPDSPYDP [YLR106C 2903-2916],21.6
10,HPHPHPHPHTPTHT [YHR217C 23-36],238
11,HATLYWAPVSPLKS [YLR305C 1420-1433],151
12,GEYDLIMPIYPYRL [YIL173W 521-534],242
13,GLRWYRSPIYPYLY [YEL050C 102-115],468
14,GLIGMNDPPRPNVK [YGL167C 574-587],116
15,HPYMMVYPMSPPPP [YHL024W 649-662],563
16,FPFYLSFPFSPSFP [YLR198C 23-36],760
17,GWPVYNYPMQPTTE [YER109C 286-299],168
18,GAGGLGSPALPYLA [YHR111W 74-87],111
19,GLLTYKGPKVPYQK [YHR028C 497-510],150

# The remaining lines, values ahead:
row,"normalised SPOT signal, Boehringer light units (BLU); mean over the file's lines of this peptide",Binder
1,121,HLDSFSPPFSPSTT [YPL230W 298-311]
2,106,GETQWRIPYLPLDP [YNL104C 387-400]
3,453,GWVVYPPPPKPSYN [YML035C 223-236]
4,130,GLHDYTSPASPKQT [YOR267C 107-120]
5,222,GAPPLPVPNGPAVG [YPL190C 573-586]
6,318,HPIHLQPPVPPVYK [YOR032C 88-101]
7,160,GLRELFLPGMPGLM [YPL249C 557-570]
8,118,GETRWRIPYLPLDP [YOR108W 386-399]
9,261,HLTDLSPPGTPPTM [YMR165C 272-285]
10,255,IAGMLMVPESPRFL [YMR011W 241-254]
11,92.5,HFNDLQSPAQPQQS [YMR164C 264-277]
12,75.9,GWEPFSLPKDPKVV [YML018C 282-295]
13,122,HFLSLDPPIDPNNL [YMR075W 283-296]
14,228,HAVLLNPPVAPTAE [YPL012W 184-197]
15,205,GPIIHPGPEPPRYD [YPR030W 1104-1117]
16,114,GWSTYIPPFNPLEI [YNL088W 836-849]
17,147,HEYNLALPKFPILF [YMR088C 27-40]
18,162,GPLLLTVPELPEAD [YLR338W 178-191]
19,457,HPSGLNSPKLPPLP [YNL152W 370-383]
